Values joined by “and” are separate entries in the source; they are usually repeats but may differ in a detail not shown here. Equal entries are not always repeated.
Assays:
Assay type in all cases: biochemical
BRISC BRCC36 L169A = BRISC BRCC36 L169A (Homo sapiens, UniProt P46736+Q15018+Q9NXR7, L169A); assay: BRISC mutant IQF assay: BRCC36 L169A
Method: (§1) IQF assays were performed in DUB reaction buffer containing 50 mM HEPES–NaOH pH 7.0, 100 mM NaCl, 0.1 mg ml^−1 BSA, 1 mM DTT and 0.03% v/v Brij-35. […] The final concentration of BRISC WT, all BRISC mutants, HsBRISCΔLoop, MmBRISC and DrBRISCΔNΔC was 1 nM. Other enzymes were tested at the following concentrations: 5 nM ARISC (FL), 10 nM CfBRISCΔNΔC, 250 nM AMSH* (ref. [43]), 500 nM USP2 and 1 μM trypsin (Sigma, 9002-07-7). For Michaelis–Menten experiments, 1 nM BRISC with 0–1 μM IQF K63-linked diubiquitin substrate was used. Michaelis–Menten analyses and Lineweaver–Burk plots were calculated using GraphPad Prism (version 9.0).
(§2) To assess enzymatic activity, BRISC complexes were diluted to concentrations between 1 nM and 50 nM. […] Then, 20-μl enzyme reactions were carried out in 384-well black flat-bottom low-flange plates (Corning, 35373). DUB activity was measured using IQF K63-linked diubiquitin (LifeSensors, DU6303) at 50 nM. Cleaved diubiquitin was monitored by measuring fluorescence intensity (excitation, 544 nm; emission, 575 nm; dichroic mirror, 560 nm). Fluorescence intensity was measured every minute for 30 min at 30 °C. Fluorescence intensity units were plotted against time to generate a linear reaction progress curve, where the initial velocity (V0) corresponds to the gradient of the curve (typically achieved within 15 min). IC50 values were calculated using the GraphPad Prism (version 9.0) built-in dose–response equation for inhibitor concentration versus response (variable slope).

BRISC BRCC45 C245A = BRISC BRCC45 C245A (Homo sapiens, UniProt P46736+Q15018+Q9NXR7, C245A); assay: BRISC mutant IQF assay: BRCC45 C245A
Method: as §1, §2

BRISC BRCC45 D248R = BRISC BRCC45 D248R (Homo sapiens, UniProt P46736+Q15018+Q9NXR7, D248R); assay: BRISC mutant IQF assay: BRCC45 D248R
Method: as §1, §2

BRISC = target: T1, BRISC (Homo sapiens, UniProt P46736+Q15018+Q9NXR7); assay: BRISC DUB activity assay (IQF K63-linked diubiquitin); conditions: BRISC WT
T1 construct: made in house; host or cells: Spodoptera frugiperda (Sf9) insect cells, MultiBac
Method: as §1, §2

BRISC BRCC45 F140A = BRISC BRCC45 F140A (Homo sapiens, UniProt P46736+Q15018+Q9NXR7, F140A); assay: BRISC mutant IQF assay: BRCC45 F140A
Method: as §1, §2

- SHMT2 inhibition of BRISC mutant (BRISC BRCC36 L169A): reduced BRISC inhibition by SHMT2
- Normalised V0 (BRISC BRCC36 L169A; SHMT2 0.00347222 nM): 1.281 and 0.8219 and 0.8866
- Normalised V0 (BRISC BRCC36 L169A; SHMT2 0.0347222 nM): 1.039 and 0.8402 and 0.9713
- Normalised V0 (BRISC BRCC36 L169A; SHMT2 0.347222 nM): 1.104 and 0.8836 and 0.9494
- Normalised V0 (BRISC BRCC36 L169A; SHMT2 1.04167 nM): 1.083 and 0.823 and 0.89
- Normalised V0 (BRISC BRCC36 L169A; SHMT2 3.125 nM): 0.9817 and 0.7218 and 0.8098
- Normalised V0 (BRISC BRCC36 L169A; SHMT2 6.25 nM): 1.047 and 0.8687 and 0.8472
- Normalised V0 (BRISC BRCC36 L169A; SHMT2 12.5 nM): 0.7117 and 0.4856 and 0.677
- Normalised V0 (BRISC BRCC36 L169A; SHMT2 25 nM): 0.5132 and 0.7026 and 0.4911
- Normalised V0 (BRISC BRCC36 L169A; SHMT2 50 nM): 0.4474 and 0.4092 and 0.7591
- Normalised V0 (BRISC BRCC45 C245A; SHMT2 0.00347222 nM): 0.9588 and 1.144 and 1.038
- Normalised V0 (BRISC BRCC45 C245A; SHMT2 0.0347222 nM): 0.8809 and 1.071 and 0.9852
- Normalised V0 (BRISC BRCC45 C245A; SHMT2 0.347222 nM): 0.7622 and 1.011 and 1.053
- Normalised V0 (BRISC BRCC45 C245A; SHMT2 1.04167 nM): 0.7409 and 0.9691 and 1.004
- Normalised V0 (BRISC BRCC45 C245A; SHMT2 3.125 nM): 0.5581 and 0.7111 and 0.7493
- Normalised V0 (BRISC BRCC45 C245A; SHMT2 6.25 nM): 0.4848 and 0.6695 and 0.6719
- Normalised V0 (BRISC BRCC45 C245A; SHMT2 12.5 nM): 0.4215 and 0.5643 and 0.477
- Normalised V0 (BRISC BRCC45 C245A; SHMT2 25 nM): 0.501 and 0.3965 and 0.329
- Normalised V0 (BRISC BRCC45 C245A; SHMT2 50 nM): 0.391 and 0.3153 and 0.2153
- Normalised V0 (BRISC BRCC45 C245A; SHMT2 100 nM): 0.3584 and 0.2521 and 0.1837
- Normalised V0 (BRISC BRCC45 C245A; SHMT2 200 nM): 0.2257 and 0.1737 and 0.1153
- Normalised V0 (BRISC BRCC45 D248R; SHMT2 0.00347222 nM): 0.9357 and 1.056 and 1.018
- Normalised V0 (BRISC BRCC45 D248R; SHMT2 0.0347222 nM): 0.8867 and 1.018 and 0.9695
- Normalised V0 (BRISC BRCC45 D248R; SHMT2 0.347222 nM): 0.882 and 0.7691 and 0.9453
- Normalised V0 (BRISC BRCC45 D248R; SHMT2 1.04167 nM): 0.8534 and 1.006 and 0.8339
- Normalised V0 (BRISC BRCC45 D248R; SHMT2 3.125 nM): 0.5795 and 0.5378 and 0.6917
- Normalised V0 (BRISC BRCC45 D248R; SHMT2 6.25 nM): 0.5339 and 0.4364 and 0.5979
- Normalised V0 (BRISC BRCC45 D248R; SHMT2 12.5 nM): 0.3281 and 0.3163 and 0.4228
- Normalised V0 (BRISC BRCC45 D248R; SHMT2 25 nM): 0.3612 and 0.2677 and 0.38
- Normalised V0 (BRISC BRCC45 D248R; SHMT2 200 nM): 0.05731 and 0.07178 and 0.09996
- Normalised V0 (BRISC; SHMT2 0.00347222 nM): 0.9504 and 1.044 and 0.9816
- Normalised V0 (BRISC; SHMT2 0.0347222 nM): 0.8685 and 1.128 and 1.002
- Normalised V0 (BRISC; SHMT2 0.347222 nM): 0.5106 and 0.9767 and 0.8269
- Normalised V0 (BRISC; SHMT2 1.04167 nM): 0.4439 and 0.8387 and 0.81
- Normalised V0 (BRISC BRCC45 F140A; SHMT2 0.00347222 nM): 0.9456 and 0.9686 and 0.8245
- Normalised V0 (BRISC BRCC45 F140A; SHMT2 0.0347222 nM): 0.8694 and 1.026 and 0.8239
- Normalised V0 (BRISC BRCC45 F140A; SHMT2 0.347222 nM): 0.9307 and 0.9114 and 0.8975
- Normalised V0 (BRISC BRCC45 F140A; SHMT2 1.04167 nM): 0.8692 and 0.886 and 0.7736
- Normalised V0 (BRISC BRCC45 F140A; SHMT2 3.125 nM): 0.8001 and 0.6891 and 0.7189
B1: SHMT2: serine hydroxymethyltransferase 2, metabolic enzyme and endogenous inhibitor of BRISC DUB activity (protein)
chain: QLVRMAIRAQHSNAAQTQTGEANRGWTGQESLSDSDPEMWELLQREKDRQCRGLELIASENFCSRAALEALGSCLNNKYSEGYPGKRYYGGAEVVDEIELLCQRRALEAFDLDPAQWGVNVQPYSGSPANLAVYTALLQPHDRIMGLDLPDGGHLTHGYMSDVKRISATSIFFESMPYKLNPKTGLIDYNQLALTARLFRPRLIIAGTSAYARLIDYARMREVCDEVKAHLLADMAHISGLVAAKVIPSPFKHADIVTTTTHKTLRGTRSGLIFYRKGVKAVDPKTGREIPYTFEDRINFAVFPSLQGGPHNHAIAAVAVALKQACTPMFREYSLQVLKNARAMADALLERGYSLVSGGTDNHLVLVDLRPKGLDGARAERVLELVSITANKNTCPGDRSAITPGGLRLGAPALTSRQFREDDFRRVVDFIDEGVNIGLEVKSKTAKLQDFKSFLLKDSETSQRLANLRQRVEQFARAFPMPGFDEH

Source: PMC7617869, “Molecular glues that inhibit deubiquitylase activity and inflammatory signaling” (Nature Structural & Molecular Biology, 2025)
